# Measured values published in PMC8152229, “Structural and Functional Peculiarities of Cytoplasmic Tropomyosin Isoforms, the Products of TPM1 and TPM4 Genes” (International Journal of Molecular Sciences, 2021).
# B1: Tropomyosin isoform Tpm1.12 (natural protein)
# chain: not shown
# notes: cytoplasmic LMW isoform Tpm1.12 of the TPM1 gene (~247 residues; exon 9c three residues shorter than 9d), exons 1b, 9c; has Cys-154; no N-terminal extension; source: E. coli C41(DE3), purified (anion exchange, HiTrap QHP); reduced with DTT before experiments
# B2: Tropomyosin isoform Tpm4.2 (natural protein)
# chain: not shown
# notes: cytoplasmic LMW isoform Tpm4.2 of the TPM4 gene (~247 residues), exons 1b, 9d; an N-terminal extension is stated only for the HMW isoforms; source: E. coli C41(DE3), purified (anion exchange, HiTrap QHP); reduced with DTT before experiments
# B3: Tropomyosin isoform Tpm1.7 with Ala-Ser N-terminal extension (natural protein)
# chain: not shown
# notes: Ala-Ser N-terminal extension that mimics natural N-terminal acetylation; cytoplasmic HMW isoform Tpm1.7 of the TPM1 gene (~284 residues), exons 1a2b, 6a, 9d; Alpha-helical coiled-coil dimer; source: E. coli C41(DE3), purified (anion exchange, HiTrap QHP)
# Target: F-actin from rabbit skeletal muscle, stabilised by phalloidin (rabbit, UniProt P68135 1-377)
# Test: co-sedimentation; 10 uM phalloidin-stabilized F-actin mixed with increasing Tpm (0 to 5.5-6 uM; up to almost 40 uM for Tpm1.12); 30 mM Hepes-Na pH 7.3, 200 mM NaCl; 40 min at 25 °C; 100,000 x g for 40 min; SDS-PAGE of pellet and supernatant; K50% = Tpm concentration at which actin is half-saturated
# Settings: both partners purified
row,Binder,K50% [µM]
1,B1,14.9
2,B2,1.07
3,B3,0.4
